Test results taken from paper PMC5464768, “ER retention is imposed by COPII protein sorting and attenuated by 4-phenylbutyrate” (eLife, 2017).

Target: T1, 5-Fam-[…] (vesicular stomatitis virus)
T1 construct: also called fluorescent tracer peptide; fluorescent probe
Assay: fluorescence polarisation
Details: both partners purified

B1: Sec24a (△1–340) (domain or fragment)
chain: LSLQPEGLRVVNLLQERNMLPSTPLKPPVPNLHEDIQKLNCNPELFRCTLTSIPQTQALLNKAKLPLGLLLHPFKDLVQLPVVTSSTIVRCRSCRTYINPFVSFLDQRRWKCNLCYRVNDVPEEFLYNPLTRVYGEPHRRPEVQNATIEFMAPSEYMLRPPQPPVYLFVFDVSHNAVETGYLNSVCQSLLDNLDLLPGNTRTKIGFITFDSTIHFYGLQESLSQPQMLIVSDIEDVFIPMPENLLVNLNESKELVQDLLKTLPQMFTKTLETQSALGPALQAAFKLMSPTGGRMSVFQTQLPTLGVGALKPREEPNHRSSAKDIHMTPSTDFYKKLALDCSGQQVAVDLFLLSGQYSDLASLGCISRYSAGSVYYYPSYHHQHNPVQVQKLQKELQRYLTRKIGFEAVMRIRCTKGLSIHTFHGNFFVRSTDLLSLPNVNPDAGYAVQMSVEESLTDTQLVSFQSALLYTSSKGERRIRVHTLCLPVVSTLNDVFLGADVQAISGLLANMAVDRSMTASLSDARDALVNAVIDSLSAYRSSVLSNQQPGLMVPFSLRLFPLFVLALLKQKSFQTGTNARLDERIFAMCQVKNQPLVYLMLTTHPSLYRVDNLSDEGALNISDRTIPQPPILQLSVEKLSRDGAFLMDAGSVLMLWVGKNCTQNFLSQVLGVQNYASIPQPMTDLPELDTPESARIIAFISWLREQRPFFPILYVIRDESPMKANFLQNMIEDRTESALSYYEFLLHIQQQVNK
notes: Sec24a, H. sapiens, lacking residues 1–340 (△1–340); Purified alone for fluorescence polarization and as the complex with Sec23a for crystallography; also called human Sec24a; source: High Five insect cells (baculovirus), purified (HisTrap HP, HiTrap Q, Superdex 200); not shown: His6, N-terminal, cleaved
**Q.** With B1 as the binder, how does the Kd read?
**A.** Its Kd is 14.2 µM.
